Laboratory results as given in the DeepSol protein solubility set.

Experiment: soluble on expression in E. coli; label from the status in PepcDB or PDB records

| Sequence | soluble on expression in E. coli |
| --- | --- |
| MAHHHHHHMAPPQTTLSLDANLRNTLRSLLIERLCSPTQPLPAKQLYDELTNRSRLVEEFHFSKTSRRITRQRLALQFLRRYNVLLHGLFFYSEGTRTWNTTTEFHRLAILGESVLLTEVRTRLLKLFPVMPYAAYVQSLPHMVGEEALAAAFDRYEMQNIVGAKPSNQRSGTPLTRMQKSHMLCAIVAEMYWFTARTKPTDLTHNNALFPPSDVLILHVLSTHLLENLPAELIYNVVEPIVADIKRVWVNEPMSLPSQLRLTPRTVGALSLNAVPVDLRYTAKEDAVMSLQKKHEEAHRRQHALTREPDHSCVKSFMRPSCNYRIFDGPRYQILSSDNRVAPLPLAQERSSLPASAVCTVVDDADSAARAMELAKMAEQW | not soluble |
| GPGSMLLMPFPLVPSPPPTRLSGHLTPVALVGVLVCASPRCAPKPRPRPWNASHTHTHTHTSPRPLIAHTVSLCVSVVRKHLFFFRRFLRLPPSPNRKRNQLTGAAMLTRRAVSSAVGAAMVTSSSVSMQRRYDHDRWYGHALELDTHNYKFNGEPPSWMKTRAKTEEETSFAKSVLPHIDFASSYECLLFDADRLNTNLNRKEFGNEIKYRLEKQANTVARAQQLLRDKKAGTGPDAEKVENTLIARIFDEEHVQAEMKYVKCIRANELAEDNRLDILPGGSPNSLREKTRWNLNTELHPADRAEIGARLTAWLPEKYHIVYFDDFQTVAANDATARKEMLEIVESVQKEYTAEAKEGGYESDLKEAVAELMDDVDPTRTITMEAIKSCKDLQQLEDWSRQVHEYNGDDRIIAIYARAAEITKNVEHQALVRQMREWRKLATKNESKL | not soluble |
| MKWKVLQLKTQEIKVNNLAKSSLHQPGSLVLRNRIRNNQTISNHQKVYITNLHKDKLKLNNLLRLMKSTNRHMPFRNLVLATGQELALLHNKRKRRKTLPLALFYSHLILL | not soluble |
| MGSDKIHHHHHHMNDAAPTCTGGCTLNVLHTTTYHYSQPVEHAQQRAVATPPDLPWQSVTAHDTRIEPVPTHQHVRTDAFGNRVLHFMLDVPHTQMQLTCASTVVLTPRWQTLDPSASAPWETVAQSLRFHAAQPFEPATQFAFASPNIALHPSLRDYALPSFGAGVPVVAGAMDLMRRIHADFTYHSESTEVHTPAMQAFAQRSGVCQDFAQVMIGCLRSVGVAARYVSGYLCTEPPPGEERLVGADASHAWVSVYCPVAGWVDLDPTNNVLADTRHVTLAWGRDYSDVPLLHGVIVGGGAHGVDVGVTVVPVD | not soluble |
| MKQAIVYWKTLKAGILTESDEGYSFAYDKDYLTMPEAQGISLTMPLREEPFQSNMLHPFFDGLIPEGWLLDIAQKNWKIDSRDRMALLLACCRDCIGAVSIEPLNTTEDDE | not soluble |
| GAMHTFYGTRLLNPKPVDFALEGPQGPVRLSQFQDKVVLLFFGFTRCPDVCPTTLLALKRAYEKLPPKAQERVQVIFVSVDPERDPPEVADRYAKAFHPSFLGLSGSPEAVREAAQTFGVFYQKSQYRGPGEYLVDHTATTFVVKEGRLVLLYSPDKAEATDRVVADLQALL | soluble |
| MVLAALVLVLEGEGLPEPLGLRGFFYGLLREVAPEVHDQGENPFALGFGGREGAAWARVSLLVEGLYARLAPRLYALEGEEVRLGPPFRVRAVLQEGHPWAGVSTYPRLFQGPPSRDLALRFASPTFFRRKGVHYPVPEPRLVLESLLRRLEAFGPLKAPEGVREALLERTTVRSLEGRTLPARTEVDTAGFVGRVVYHLPRATEEEALWLSALGRFAFYSGVGAKTSLGYGRARAESA | soluble |
| MEMTMEQEPLNGWPQPYRLLDAQPYWDALQDEKLTYQQCVACRQSVWPAHSRCPHCSSDQLVWQASSGRATVYSFSTVTRGPTPVWASIVPYTVGFVEMDEGYFLFTQIEGPPGSIGVGDKVQVRFVRRGAQILPVFVSADLPA | not soluble |
| MIVNRNPFEQLPSLAINPEDFDVLYSAETFRTRLLDAISKATSRIYLVALYLEDDEAGREILTALYEAKQRNPGLDINICVDWHRAQRGLIGAETSEGNSALYKAFADQYQHAIPVYGIPVRGREVFGVLHLKGFVVDDTVIYSGASLNNVYLQYHGRYRFDRYHVIKHKSLADTMVNFVQNEMIAHPAVNDLADRDKPETKEIKSAIRQLRSSLAQANYQFAHEAAAEDKVKITPLVGLGKRRNLLNQQIVKLLAAAQNEIFICTPYFNFPKSIHREVKRAMKRGVKVTIVVGDKTANDFYISPEEDFKTIGGLPYLYEVNLRRFAKANEANIAARKLSVHLWKHENNSFHLKGIWVDKRYMLLTGNNLNPRAWSLDLENGLLIQDDYANLTHKFEDEVARILEHTQLICTYKQLEKVEDYPLAVQKLVRKITRLKADGVLKRILLEHHHHHH | soluble |
| MGSDKIHHHHHHVSLLGEERKSQIMQWLEEEGKVMTKDLIDRLDVSGETVRRYLEELERERQLKRVYGGAIYQGGKQESPISRRTDQLSRRLARYAKGWLADYSCIFLGKGEPVEHLLPYLSGSATIVTNSLSIASHLEQCRETGPFHGEIRLLGGTVDSYGQTVGVEVLQALDAYAFDASFLTFDGAEIERGFVSDDIESSLIQKAIIGRTKDVYAFLACDEFEGNRKYKVAEFRRAKIVLSPSTYPPSWEMKLFNERVNWTVVS | not soluble |
| MASLSRALRVAAAHPRQSPTRGMGPCNLSSAAGPTAEKSVPYQRTLKEGQGTSVVAQGPSRPLPSTANVVVIGGGSLGCQTLYHLAKLGMSGAVLLERERLTSGTTWHTAGLLWQLRPSDVEVELLAHTRRVVSRELEEETGLHTGWIQNGGLFIASNRQRLDEYKRLMSLGKAYGVESHVLSPAETKTLYPLMNVDDLYGTLYVPHDGTMDPAGTCTTLARAASARGAQVIENCPVTGIRVWTDDFGVRRVAGVETQHGSIQTPCVVNCAGVWASAVGRMAGVKVPLVAMHHAYVVTERIEGIQNMPNVRDHDASVYLRLQGDALSVGGYEANPIFWEEVSDKFAFGLFDLDWEVFTQHIEGAINRVPVLEKTGIKSTVCGPESFTPDHKPLMGEAPELRGFFLGCGFNSAGMMLGGGCGQELAHWIIHGRPEKDMHGYDIRRFHHSLTDHPRWIRERSHESYAKNYSVVFPHDEPLAGRNMRRDPLHEELLGQGCVFQERHGWERPGWFHPRGPAPVLEYDYYGAYGSRAHEDYAYRRLLADEYTFAFPPHHDTIKKECLACRGAAAVFDMSYFGKFYLVGLDARKAADWLFSADVSRPPGSTVYTCMLNHRGGTESDLTVSRLAPSHQASPLAPAFEGDGYYLAMGGAVAQHNWSHITTVLQDQKSQCQLIDSSEDLGMISIQGPASRAILQEVLDADLSNEAFPFSTHKLLRAAGHLVRAMRLSFVGELGWELHIPKASCVPVYRAVMAAGAKHGLINAGYRAIDSLSIEKGYRHWHADLRPDDSPLEAGLAFTCKLKSPVPFLGREALEQQRAAGLRRRLVCFTMEDKVPMFGLEAIWRNGQVVGHVRRADFGFAIDKTIAYGYIHDPSGGPVSLDFVKSGDYALERMGVTYGAQAHLKSPFDPNNKRVKGIY | not soluble |
| SNDAGAKTENTVDASPTPTNTPTDGDGDSAEEPVENTPAEPEPRPTPVEPEAMKTSDKAGAIAAAQYFVEVIEHSMHTSTTDLLEKYSYEKCSMCNEYKRTIAKRKDNGILVTNSQYEIKDLGPASLWGKKQLIWEVMLNLSVKEEYENFDESYTTEHSLLFYVTYLPDGWVLTEVTPASKK | not soluble |
| MAHHHHHHMSSSAVPAYEGKQKVYALLNGTFHAAIVLEVAEDATEGGFLYYVRYVEQDSRLDQWLQASDIKERHQGRTHHGSSCTHQQYTPSGIKTRRQSHVTEQQNAETAVLTGEGVGMPTEVSANAKGGGAAPHLVKVSKTRARRDSAFFSRTKNIYSICMGPHEVETWYFSPYHLARPEVQQRLQAASQCVTGSTELQLVQSTTSPGGTSGVSTGIADVGGGAGGTGNVSVGAGGSGRGSGAGMRQWPIATRSFSLHICPYCLRPFLDNAAVVRHLQQDCLRHPPGNEIYRDPVRRLVVLELDGSLEPTFCEHLALLSKLFLEHKALDHDMTPFLFYVLCSVETHGLQVLGYFSKEKQTPEPYNLSCILVLPQYQSRGIGRFLIELSYELSRREGKVGTPEKPLSDLGEKLYLSYWADSVTMAIARAMEEGHCVSVDYLVQATAMIQADVIRALQHQKLLNGHQLTISEDIVERCYTKRLTKERDITSYTFYTHLLSWAPGFYEEFRGVPPAPTFVPWRDPSAPHSRTGG | not soluble |
| TILVAIANDSVSPAVIDTAVRLADGLDEELYVVHLVDENTADGTAMQLRDEMRDRFRDATVVATVAIEHVGRSAMRSGTRIGNELLELAADVDVQHIVMGHEPKGLAGRLREGDAAVAVIDAADVPVTIVPEG | not soluble |
| MANCQIAILYQRFQRVVFGISQLLCFSALISELTNQKEVAAWTYHYSTKAYSWNISRKYCQNRYTDLVAIQNKNEIDYLNKVLPYYSSYYWIGIRKNNKTWTWVGTKKALTNEAENWADNEPNNKRNNEDCVEIYIKSPSAPGKWNDEHCLKKKHALCYTASCQDMSCSKQGECLETIGNYTCSCYPGFYGPECEYVRECGELELPQHVLMNCSHPLGNFSFNSQCSFHCTDGYQVNGPSKLECLASGIWTNKPPQCLAAQCPPLKIPERGNMTCLHSAKAFQHQSSCSFSCEEGFALVGPEVVQCTASGVWTAPAPVCKAVQCQHLEAPNEGTMDCVHPLTAFAYGSSCKFECQPGYRVRGLDMLRCIDSGHWSAPLPTCEAISCEPLESPVHGSMDCSPSLRAFQYDTNCSFRCAEGFMLRGADIVRCDNLGQWTAPAPVCQALQCQDLPVPNEARVNCSHPFGAFRYQSVCSFTCNEGLLLVGASVLQCLATGNWNSVPPECQAIPCTPLLSPQNGTMTCVQPLGSSSYKSTCQFICDEGYSLSGPERLDCTRSGRWTDSPPMCEAIKCPELFAPEQGSLDCSDTRGEFNVGSTCHFSCNNGFKLEGPNNVECTTSGRWSATPPTCKGIASLPTPGVQCPALTTPGQGTMYCRHHPGTFGFNTTCYFGCNAGFTLIGDSTLSCRPSGQWTAVTPACRAVKCSELHVNKPIAMNCSNLWGNFSYGSICSFHCLEGQLLNGSAQTACQENGHWSTTVPTCQDDGKCPLNPHSHLGTYGVFTNAAFDPSP | soluble |
| MGSDKIHHHHHHMKVDYHIHLEEGPYSIGWLAKINESLQHYEPLKEEKHSMEWLVKIQERLQRRVNEGPFTTKWIDLYLEEALRKGIKEVGIVDHLYRFYEAKEYYEKYVDISDSGLGRLQKEWLDQVRVASLHDFTKAIEEAKERWSKRGVTLKLGIEADYFIGGEQQLQSLLALGDFDYVIGSVHFLNGWGFDNPDTKEYFKEHDLYALYDTFFKTVECAVRSELFDIIAHLDNIKVFNYRLDENEQISYYKKIARALVETNTATEINAGLYYRYPVREMCPSPLYLQVLAKHEVPITLSSDAHYPNDLGKYVEENIKTLRNHDIAHLATFTKRVRTMRLLEEVTISK | not soluble |
| SAVKAQVLYDFTAEPGNNELTVHEGETLTITNQNVGGGWVEAQNSRGNVGLVPVDYVEVNSASAQAPATQYIDARNQGNNNSTANTQGVNGNEAWTATTWSNSYPADNWNYTEQEPAGNNGSVYSFDEEWDDDSDDGKSTGGYGGSQAEDGGTMQRSGAHSTMKLSLNKFPGFSKTPNPEVYLLTKHITKGNDRLSVYPGEVGPVWLYPQTQLDCVVADPKKGSKMYGLKSYIEYQITPNTTNRPVNHRYKHFDWLYERLVEKFACALPVPGLPDKQVTGRFEEEFIKMRMERLQGWMSRMCRHPVISNSEVFQLFLNYRDEKEWKLGKRKAEKDETVGVKIFSTIDPELPELDPAQVEQKYEVYNQFTRSMDNSVKELLAVGNLHWKRCTGPLQKEYRQIGKAFQNMSSVFNTSGYPRESTLTEALTATGKTYEEIAEVIAAQPRKDLHFLLETNNEYKGLLGCFPDTIGVHKAAIDKVKEADHLVMTNKISQQDKHTMEKNLSTMSYALQAEMNHFHSNRIYDYNRLMQFYLEEQVKFYETIAEKLKKALGQYTTI | soluble |
| SLKKILILDDETSVLNALQRQLIRNNWQVISFKHPATALDYAKHVFFPIVITDYRMPQMSGVEFLLEFQKLQPYAYKIMLSGQAGEYGMTEAINQAKIDYFIHKPWDNCQLLNQIDKGLNHYRQTIKHLLKTNSKRMSREDYLIWYEKLVEQACPSITKVKKNPLGWIEAEEG | not soluble |
